Measurements published in patent publication US20250368734A1 (ANTENGENE BIOLOGICS, published 2025).

How the values were obtained:
[1] = biological target: T1, human GPRC5D (human, UniProt Q9NZD1 1-345); assay: cell-based or functional assay
[2] = biological target: T1, human GPRC5D; assay: FACS, OPM-2 cells; note: test concentration or dose not given here
How it was run: (§1)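 Subclone antibodies incubated with parental or GPRC5D-overexpressing HEK293T cells (human, cynomolgus, mouse) and OPM2 cells; bound antibody detected with fluorescent dye-conjugated secondary antibody. Median fluorescence intensity read by FACS.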

[3] = biological target: T1, human GPRC5D; assay: FACS, HEK293T-hGPRC5D cells; note: test concentration or dose not given here
How it was run: as §1

[4] = biological target: T2, cynomolgus monkey GPRC5D (cynomolgus monkey); assay: FACS, HEK293T-cynoGPRC5D cells; note: test concentration or dose not given here
T2 construct: whole, on cells; HEK293T-cynoGPRC5D cells; also called cynoGPRC5D
From the text: (§2) The subcloning plates were screened by Mirrorball assay and the subclones with good binding ability were expanded to 24-wells for confirmation tests. The specificity and cross-reactivity of these subclones were confirmed with FACS analysis. Briefly, parental HEK293T, HEK293T cells stably over-expressing human GPRC5D protein (i.e., HEK293T-hGPRC5D), HEK293T cells stably over-expressing cynomolgus monkey GPRC5D protein (i.e., HEK293T-cynoGPRC5D), HEK293T cells stably over-expressing mouse GPRC5D protein (i.e., HEK293T-mGPRC5D), and OPM2 cells were incubated with antibodies produced by each subclone, respectively. Fluorescent dye-conjugated secondary antibody was used to detect the binding of the primary antibody with the cells. Median fluorescence intensity (MFI) was measured by FACS analysis,
(§3) As a result, 21 antibodies were discovered with unique sequences showing positive binding with HEK293T-hGPRC5D and OPM2 cells. Among which, some clones could also bind with HEK293T-cynoGPRC5D and/or HEK293T-mGPRC5D. […] ATG596 was a positive human IgG1 control antibody which comprises a VH region having an amino acid sequence as set forth in SEQ ID NO: 199, and a VL region having an amino acid sequence as set forth in SEQ ID NO: 200.

[5] = biological target: T3, mouse GPRC5D (mouse, UniProt Q9JIL6 1-344); assay: FACS, HEK293T-mGPRC5D cells; note: test concentration or dose not given here
T3 construct: whole, on cells; HEK293T-mGPRC5D cells; also called mGPRC5D; murine GPRC5D
T3 sequence (looked up): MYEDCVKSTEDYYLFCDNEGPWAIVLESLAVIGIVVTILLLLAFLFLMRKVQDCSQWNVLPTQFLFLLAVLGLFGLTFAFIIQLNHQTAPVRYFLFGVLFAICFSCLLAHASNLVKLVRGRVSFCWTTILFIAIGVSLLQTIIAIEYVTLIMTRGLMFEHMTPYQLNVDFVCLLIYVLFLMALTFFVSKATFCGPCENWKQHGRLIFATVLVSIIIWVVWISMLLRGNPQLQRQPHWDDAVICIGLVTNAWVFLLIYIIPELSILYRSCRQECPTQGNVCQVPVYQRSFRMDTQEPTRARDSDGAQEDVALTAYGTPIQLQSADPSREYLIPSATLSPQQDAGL
From the text: as §2, §3

T1 sequence (Q9NZD1 whole entry): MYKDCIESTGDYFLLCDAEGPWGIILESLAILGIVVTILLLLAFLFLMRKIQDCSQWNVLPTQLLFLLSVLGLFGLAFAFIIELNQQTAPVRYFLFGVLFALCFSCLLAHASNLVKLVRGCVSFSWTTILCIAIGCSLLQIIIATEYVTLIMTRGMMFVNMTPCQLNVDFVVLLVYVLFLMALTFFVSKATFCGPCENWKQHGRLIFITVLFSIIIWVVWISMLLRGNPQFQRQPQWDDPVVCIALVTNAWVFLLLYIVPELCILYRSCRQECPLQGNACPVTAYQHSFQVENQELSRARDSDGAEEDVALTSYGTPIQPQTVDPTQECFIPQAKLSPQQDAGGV

Binder | EC50 [1] [nM] | Top killing % [1] [%] | % Positive [2] [%] | MFI [2] | % Positive [3] [%] | MFI [3] | % Positive [4] [%] | MFI [4] | % Positive [5] [%] | MFI [5]
Bis-108C4C12 (bispecific antibody) chain 1: EVQLQQSGPELVKPGASVKMSCKASGYTFTSYVIHWVKQKTGQGLEWIGYFNPYNDGTKYNEEFKGKATLTSDKSSNTAYMELNSLTSDDSAVYFCARGGVRRYFDVWGAGTTVTVSS chain 2: GGGGSGGGGSGGGGSEVQLVESGGGLVQPGRSLRLSCAASGFTFDNYAMHWVRQAPGKGLEWVSGISWNSGSIGYADSVKGRFTISRDNAKNSLYLQMNSLRAEDTALYYCAKDSRGYGDYSRGGAYWGQGTLVTVSSEIVMTQSPATLSVSPGERATLSCRASQSVSSNLAWYQQKPGQAPRLLIYGASTRATGIPARFSGSGSGTEFTLTISSLQSEDFAVYYCQQYNNWPWTFGQGTKVEIK chain 3: DIQMTQSPSSLSASLGERVSLTCRASQDIGSNLNWLQQEPDGTIKRLIYATFGLDSGVPKRFSGSRSGSDYSLTISSLESEDFVDYYCQQYASFPYTFGGGTKLEIK | 1.44 | 67.9 |  |  |  |  |  |  |  | 
Bis-116G1G4 (bispecific antibody) chain 1: EVQLQQSGPELVKPGASVKMSCKASGYTFTYYIMHWVKQEPGQGLQWIGYINPYNDGAYYSARFKGKATLTSDKSSSTAYMDLTSLTSEDSAVYYCARGGVRRYFDVWGAGTTVTVSS chain 2: GGGGSGGGGSGGGGSEVQLVESGGGLVQPGRSLRLSCAASGFTFDNYAMHWVRQAPGKGLEWVSGISWNSGSIGYADSVKGRFTISRDNAKNSLYLQMNSLRAEDTALYYCAKDSRGYGDYSRGGAYWGQGTLVTVSSEIVMTQSPATLSVSPGERATLSCRASQSVSSNLAWYQQKPGQAPRLLIYGASTRATGIPARFSGSGSGTEFTLTISSLQSEDFAVYYCQQYNNWPWTFGQGTKVEIK chain 3: DIQMTQSPSSLSASLGERVILTCRASQDIGSNLIWLQQKPDGTIKRLIYATFNLDSGVSKRFSGSRSGSDYSLTISSLDSEDFVDYYCLQYASSPYTFGGGTKLEIK | 1.88 | 69.2 |  |  |  |  |  |  |  | 
Bis-116F1G6 (bispecific antibody) chain 1: EVQLQHSGPELVKPGASVKMSCKASGYTFTTYVMHWVKQKPGQGLEWIGYINPYNDGTKYNEKFKGKATLTSDKSSSTAYMELSSLTSEDSAVYYCARGGVRRYFDVWGAGTTVTVSS chain 2: GGGGSGGGGSGGGGSEVQLVESGGGLVQPGRSLRLSCAASGFTFDNYAMHWVRQAPGKGLEWVSGISWNSGSIGYADSVKGRFTISRDNAKNSLYLQMNSLRAEDTALYYCAKDSRGYGDYSRGGAYWGQGTLVTVSSEIVMTQSPATLSVSPGERATLSCRASQSVSSNLAWYQQKPGQAPRLLIYGASTRATGIPARFSGSGSGTEFTLTISSLQSEDFAVYYCQQYNNWPWTFGQGTKVEIK chain 3: DIQMTQSPSSLSASLGERVSLTCRASQDIGSNLNWLQQEPNGTIKRLIYATFTLDSGVPKRFSGSRSGSDYSLTISSLESEDFVDYYCLQYASFPYTFGGGTKLEIK | 1.66 | 71.8 |  |  |  |  |  |  |  | 
36A3G8 (antibody, V domains shown, Mouse monoclonal antibody from hybridoma subclone) VH: QVQLQQSGAELARPGASVKMSCKASGYTFTTYTMHWIKQRPGQDLEWIGFINPSSGYTKYNQNFKDKATLTADKSSTTAYMQLNSLTSEDSAVYYCASPYGNIYFDVWGTGTTVTVSS VL: DIVMTQSQKFMSTAVGDRVSITCKASQNVGTAVAWYQQKPGQSPKLLIYSASNRYTGVPDRFTGSGSGTDFTLTISNMQSEDLADYFCQQYSSYPLTFGAGTKLELK |  |  | 96.3 | 791 | 99.3 | 31800 | 96.6 | 3110 |  | 
28H9C12 (antibody, V domains shown, Mouse monoclonal antibody from hybridoma subclone; also called 281H9C12) VH: EVQLVESGGGLVKPGGSLKLSCAASGFTFSDYGMHWVRQAPEKGLEWVAYISSGSSTIYYADTVKGRFTISRDNAKNTLFLQMTSLRSEDTAIYYCVRRPWYFDVWGTGTTVTVSS VL: DVLMTQTPLSLPVSLGDQASISCRSSQSIVHSNGNTYLQWYLQKPGQSPKLLIYKVSNRFSGVPDRFSGSGSGTDFTLKISRLEAEDLGVYYCFQGSHVPFTFGSGTKLEIK |  |  | 97.9 | 1120 | 99.6 | 25100 | 99.8 | 18000 | 1.6 | 121
26E2H6 (antibody, V domains shown, Mouse monoclonal antibody from hybridoma subclone) VH: EVQLVESGGDLVKPGGSLKLSCAASGFTFSSYGMSWVRQTPDKRLEWVATISSGGSYTYYPDSVKGRFTISRDNAKNTLYLQMSSLKSEDTAMYYCARHATDYWGQGTTLTVSS VL: QIVLTQSPAIMSASPGEKVTMTCSASSSVSYMHWYQQKSGTSPKRWIYDTSKLASGVPARFSGSGSGTSYSLTISSMEAEDAATYYCQQWSSNPLTFGAGTKLELK |  |  | 97.9 | 1150 | 99.8 | 27200 | 1 | 116 | 68.4 | 370
20C4E1 (antibody, V domains shown, Mouse monoclonal antibody from hybridoma subclone) VH: EVRLVESGGALVRPGGSLKLSCAASGFTFSDYGMHWVRQAPEKGLEWIAFISSVSFTIYYADTVKGRFTISRDNAKNTLFLQMTSLRSEDTALYYCTRLGPHWYFDVWGTGTTVTVSS VL: DVVLTQTPLSLPVSLGDQASISCRSSQSLVYSNGNTYLHWFLQKPGQSPQLLIYKVSNRFSGVPDRFSGSGSGTDFTLKISRVEAEDLGVYFCSQSTPVPTFGGGTKLEIK |  |  | 99.5 | 2020 | 99.9 | 38900 | 99.2 | 31300 | 82.7 | 592
15D6G2 (antibody, V domains shown, Mouse monoclonal antibody from hybridoma subclone) VH: EVQLVESGGDLVKPGGYLRLSCAASGFTFSSHGMSWVRQTPDKRLEWVATISSGGRNTYYPDSVKGRFTISRDNAKNILYLQMSSLKSEDTAMFYCTRHSGDAMDYWGQGTSVTVSS VL: DILLTQSPAILSVSPGERVSFSCRASQSIGTNIHWYQQRTNGSPRLLIKYASESISGIPSRFSGSGSGTDFTLSINSVESEDIADYYCQQSKSWPTFGGGTKLEIK |  |  | 99.4 | 1740 | 99.5 | 32800 | 99.7 | 7760 | 14.6 | 150
12G12C2 (antibody, V domains shown, Mouse monoclonal antibody from hybridoma subclone) VH: QIQLVQSGPELKMPGETVKISCKASGYTFTTYGLSWVKQAPGKGLKWMGWINTFSGVPIYADDFKGRFAFSLETSASTAYLQINNLKNEDTATYFCARWGIRQRGDYWGQGATLTVSS VL: QIVLTQSPAIMSASPGEKVTMTCSASSSVSYLHWYQQKSGTSPKRWIYDTSKLASGVPVRFSGSGSETSYSLTISSMEAEDAATYYCQQWTSNPPTFGGGTKLEIK |  |  | 98.4 | 1070 | 98.7 | 32100 | 96.2 | 24700 | 99 | 7080
